Experimental data reported in patent publication US20240425837A1 (Novo Nordisk, published 2024).
No end group written: not given here.

Tests used:
Assay in all cases: ELISA, biotinylated 12-mer peptide on streptavidin, 2 ug/mL FLAG-tagged VHH, anti-FLAG-HRP
[1] = target: T1, FX activation peptide 12-mer PYDAADLDPTEN (SEQ ID NO:712) (human)
T1 peptide: PYDAADLDPTEN-biotin
Method: (§1) To determine whether the binding epitope of the anti-FX VHH polypeptide designated “cmpd #1” are located inside the activation peptide (AP) of human FX (SEQ ID NO:2), an ELISA assay was setup. 41 unique 12-mer peptide fragments spanning the 52 residues of the activation peptide with one amino acid spacing were immobilized in microtiter plate wells followed by incubation with the VHH polypeptide to be tested, and detection of bound ligand was performed by addition of a secondary HRP-labelled antibody.
(§2) The peptides were C-terminally conjugated to biotin and 50 μL of 1 μg/mL peptide solution was used for immobilization in discrete wells of the microtiter plate which was pre-coated with 1 μg/mL streptavidin. Each well was washed with washing buffer (10 mM Tris, 150 mM NaCl, 2.5 mM CaCl₂, 0.05% Tween 20, pH 8.60) followed by addition of 50 μL of 2 μg/mL FLAG-tagged anti-FX VHH polypeptide or IgG antibody to be tested. After 1 hour non-bound VHH polypeptide was washed off using washing buffer.
(§3) Bound anti-FX activation peptide ligand was detected by first binding a HRP-labelled secondary antibody (for FLAG-tagged VHH polypeptide: Anti-FLAG mAb M2-Peroxidase (HRP) (Sigma Aldrich, US) for 1 hour, and then adding 100 μL TMB-1 ELISA substrate (Kem-En-Tec Diagnostics, Denmark).

[2] = target: T2, FX activation peptide 12-mer PDSITWKPYDAA (SEQ ID NO:705) (human)
T2 peptide: PDSITWKPYDAA-biotin
Method: as §1, §2, §3

[3] = target: T3, FX activation peptide 12-mer LDFNQTQPERGD (SEQ ID NO:728) (human)
T3 peptide: LDFNQTQPERGD-biotin
Method: as §1, §2, §3

[4] = target: T4, FX activation peptide 12-mer WKPYDAADLDPT (SEQ ID NO:710) (human)
T4 peptide: WKPYDAADLDPT-biotin
Method: as §1, §2, §3

[5] = target: T5, FX activation peptide 12-mer NQTQPERGDNNL (SEQ ID NO:731) (human)
T5 peptide: NQTQPERGDNNL-biotin
Method: as §1, §2, §3

[6] = target: T6, FX activation peptide 12-mer SITWKPYDAADL (SEQ ID NO:707) (human)
T6 peptide: SITWKPYDAADL-biotin
Method: as §1, §2, §3

[7] = target: T7, FX activation peptide 12-mer PTENPFDLLDFN (SEQ ID NO:720) (human)
T7 peptide: PTENPFDLLDFN-biotin
Method: as §1, §2, §3

[8] = target: T8, FX activation peptide 12-mer TSSSGEAPDSIT (SEQ ID NO:698) (human)
T8 peptide: TSSSGEAPDSIT-biotin
Method: as §1, §2, §3

[9] = target: T9, FX activation peptide 12-mer VAQATSSSGEAP (SEQ ID NO:694) (human)
T9 peptide: VAQATSSSGEAP-biotin
Method: as §1, §2, §3

[10] = target: T10, FX activation peptide 12-mer DLLDFNQTQPER (SEQ ID NO:726) (human)
T10 peptide: DLLDFNQTQPER-biotin
Method: as §1, §2, §3

[11] = target: T11, FX activation peptide 12-mer TWKPYDAADLDP (SEQ ID NO:709) (human)
T11 peptide: TWKPYDAADLDP-biotin
Method: as §1, §2, §3

[12] = target: T12, FX activation peptide 12-mer ATSSSGEAPDSI (SEQ ID NO:697) (human)
T12 peptide: ATSSSGEAPDSI-biotin
Method: as §1, §2, §3

[13] = target: T13, FX activation peptide 12-mer FDLLDFNQTQPE (SEQ ID NO:725) (human)
T13 peptide: FDLLDFNQTQPE-biotin
Method: as §1, §2, §3

[14] = target: T14, FX activation peptide 12-mer YDAADLDPTENP (SEQ ID NO:713) (human)
T14 peptide: YDAADLDPTENP-biotin
Method: as §1, §2, §3

[15] = target: T15, FX activation peptide 12-mer QTQPERGDNNLT (SEQ ID NO:732) (human)
T15 peptide: QTQPERGDNNLT-biotin
Method: as §1, §2, §3

[16] = target: T16, FX activation peptide 12-mer DFNQTQPERGDN (SEQ ID NO:729) (human)
T16 peptide: DFNQTQPERGDN-biotin
Method: as §1, §2, §3

[17] = target: T17, FX activation peptide 12-mer ADLDPTENPFDL (SEQ ID NO:716) (human)
T17 peptide: ADLDPTENPFDL-biotin
Method: as §1, §2, §3

[18] = target: T18, FX activation peptide 12-mer ITWKPYDAADLD (SEQ ID NO:708) (human)
T18 peptide: ITWKPYDAADLD-biotin
Method: as §1, §2, §3

B1: Cmpd #1 (monovalent anti-FX VHH polypeptide, VHH-1.1) (VHH)
VHH: EVQLVESGGGLVQPGGSLRLSCAASGSIGAFDAMGWYRQAPGKQRELVAGIMVSRGNTNYTDSVKGRFTISRDNAKNTVYLQMNSLKPEDTAVYYCKAVKRPGPGYLEVWGQGTLVTVSS
notes: no protractor; FLAG-tagged in the peptide ELISA
ELISA signal normalized relative to the background signal [1]: 0.83 fold of background
ELISA signal normalized relative to the background signal [2]: 1.05 fold of background
ELISA signal normalized relative to the background signal [3]: 0.97 fold of background
ELISA signal normalized relative to the background signal [4]: 0.89 fold of background
ELISA signal normalized relative to the background signal [5]: 0.92 fold of background
ELISA signal normalized relative to the background signal [6]: 1.08 fold of background
ELISA signal normalized relative to the background signal [7]: 4.58 fold of background
ELISA signal normalized relative to the background signal [8]: 0.77 fold of background
ELISA signal normalized relative to the background signal [9]: 1.02 fold of background
ELISA signal normalized relative to the background signal [10]: 3.08 fold of background
ELISA signal normalized relative to the background signal [11]: 1.13 fold of background
ELISA signal normalized relative to the background signal [12]: 0.98 fold of background
ELISA signal normalized relative to the background signal [13]: 4.38 fold of background
ELISA signal normalized relative to the background signal [14]: 0.87 fold of background
ELISA signal normalized relative to the background signal [15]: 0.88 fold of background
ELISA signal normalized relative to the background signal [16]: 0.94 fold of background
ELISA signal normalized relative to the background signal [17]: 0.91 fold of background
ELISA signal normalized relative to the background signal [18]: 1.1 fold of background
